What was measured:
Format in all cases: functional, cell-based
[1] = substrate: C[C@H](CCC(=O)NCCS(=O)(=O)O)C1CC[C@H]2[C@@H]3C[C@H](O)[C@@H]4C[C@H](O)CC[C@]4(C)[C@H]3CC[C@]12C; test: (§1) TP_TRANSPORTER: uptake in Oatp1-expressing HeLa cells
[2] = substrate: C[C@H](CCC(=O)NCCS(=O)(=O)O)[C@H]1CC[C@H]2[C@@H]3CC[C@@H]4C[C@H](O)CC[C@]4(C)[C@H]3C[C@H](O)[C@]12C; test: as §1
[3] = substrate: C[C@H](CCC(=O)O)[C@H]1CC[C@H]2[C@@H]3C[C@H](O)[C@@H]4C[C@H](O)CC[C@]4(C)[C@H]3CC[C@]12C; test: as §1
[4] = substrate: O=C1OC(c2ccc(O)c(S(=O)(=O)O)c2)(c2ccc(O)c(S(=O)(=O)O)c2)c2c(Br)c(Br)c(Br)c(Br)c21; test: (§2) TP_TRANSPORTER: uptake in NTCP-expressing HeLa cells
[5] = substrate: C[C@H](CCC(=O)NCCS(=O)(=O)O)C1CC[C@H]2[C@@H]3C[C@H](O)[C@@H]4C[C@H](O)CC[C@]4(C)[C@H]3CC[C@]12C; test: as §2
[6] = substrate: C[C@H](CCC(=O)NCCS(=O)(=O)O)[C@H]1CC[C@H]2[C@@H]3CC[C@@H]4C[C@H](O)CC[C@]4(C)[C@H]3C[C@H](O)[C@]12C; test: as §2

| Protein | Km [1] [µM] | Km [2] [µM] | Km [3] [µM] | Km [4] [µM] | Km [5] [µM] | Km [6] [µM] |
| --- | --- | --- | --- | --- | --- | --- |
| Solute carrier organic anion transporter family member 1A1 (Rattus norvegicus) (protein) MEETEKKIATQEGRLFSKMKVFLLSLTCACLTKSLSGVYMNSMLTQIERQFDISTSVAGLINGSFEIGNLFFIVFVSYFGTKLHRPVVIGIGCVIMGLGCLLMSLPHFFMGRYEYETTISPTGNLSSNSFLCMENRTQTLKPTQDPAECVKEMKSLMWICVMVGNIIRGIGETPIVPLGISYIEDFAKSENSPLYIGILEMGKVAGPIFGLLLGSYCAQIYVDIGSVNTDDLTITPSDTRWVGAWWIGFLVCAGVNILTSIPFFFLPKALPKKGQQENVAVTKDGKVEKYGGQAREENLGITKDFLTFMKRLFCNPIYMLFILTSVLQVNGFINKFTFLPKYLEQQYGKSTAEAIFLIGVYSLPPICLGYLIGGFIMKKFKITVKKAAYLAFCLSVFEYLLFLCHFMLTCDNAAVAGLTTSYKGVQHQLHVESKVLADCNTRCSCSTNTWDPVCGDNGVAYMSACLAGCKKFVGTGTNMVFQDCSCIQSLGNSSAVLGLCKKGPECANRLQYFLILTIIISFIYSLTAIPGYMVFLRCVKSEEKSLGVGLHTFCIRVFAGIPAPVYFGALIDRTCLHWGTLKCGQRGACRMYDINSFRHIYLGLPIALRGSSYLPAFFILILMRKFQFPGDIDSSATDHTEMMLGEKESEHTDVHGSPQVENDGELKTKL | 3.3 | 3.5 | 17.5 |  |  |  |
| Hepatic sodium/bile acid cotransporter (Rattus norvegicus) (protein) MEVHNVSAPFNFSLPPGFGHRATDKALSIILVLMLLLIMLSLGCTMEFSKIKAHLWKPKGVIVALVAQFGIMPLAAFLLGKIFHLSNIEALAILICGCSPGGNLSNLFTLAMKGDMNLSIVMTTCSSFSALGMMPLLLYVYSKGIYDGDLKDKVPYKGIMISLVIVLIPCTIGIVLKSKRPHYVPYILKGGMIITFLLSVAVTALSVINVGNSIMFVMTPHLLATSSLMPFSGFLMGYILSALFQLNPSCRRTISMETGFQNIQLCSTILNVTFPPEVIGPLFFFPLLYMIFQLAEGLLIIIIFRCYEKIKPPKDQTKITYKAAATEDATPAALEKGTHNGNIPPLQPGPSPNGLNSGQMAN |  |  |  | 3.7 | 6.8 | 7.4 |
